Four substances from PMC7349027 can be followed below.

Test in all cases: non-reducing SDS-PAGE with Western blot
In experiment [1] the target is truncated gp120 from the HIV-1 clade B isolate (gp120t-B) (HIV-1 clade B).
Experiment [2] deals with truncated gp120 from the HIV-1 clade C isolate (gp120t-C) (HIV-1 clade C).
The target in experiment [3] is truncated gp120 from the HIV-1 clade J isolate (gp120t-J) (HIV-1 clade J).
For experiment [4], the target named is soluble truncated gp120 from the CRF02_AG isolate (Sgp120t-AG) (HIV-1 clade CRF02_AG).

“truncated gp120 from the HIV-1 clade B isolate (gp120t-B) (domain or fragment)” had a stoichiometry N in experiment [1] of 2.

As for “truncated gp120 from the HIV-1 clade C isolate (gp120t-C) (domain or fragment)”, in experiment [2], the stoichiometry N was 2.

The substance “truncated gp120 from the HIV-1 clade J isolate (gp120t-J) (domain or fragment)” had a stoichiometry N in experiment [3] of 2.

In turn, “soluble truncated gp120 from the CRF02_AG isolate (Sgp120t-AG) (domain or fragment)” returned a stoichiometry N in experiment [4] of 2.

For orientation: stoichiometry N means a count of units in the complex or per binding partner.
